± gives the half width of the 95% confidence interval.
assay: folding stability dG unfold from chymotrypsin proteolysis; higher = more stable
Procedure, shortened: (§1)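 Unfolding free energy was derived, per protease or combined, by relating Bayesian-fitted K50 values from sequencing counts to a sequence-predicted unfolded-state K50 and a shared folded-state K50. The underlying digests exposed cysteine-free mini-proteins under 80 residues, in a PA-tagged cDNA display construct, to trypsin and chymotrypsin at 11 threefold-diluted concentrations and to a no-protease condition. A filter kept only designs with AlphaFold2 dimer inter-PAE above 15.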

In order of falling “folding stability dG unfold” value:
1. SAGGSAGGSAGGSSIRIWIFFPGYFFRITIKPDPGNPNMIKIDITEIIPPDQMDDEDLISAGGSAGGSAGGS [r4_316_TrROS]  4.38 ± 0.14 kcal/mol
2. SDIEIERDPNMIRIEHTYPFDNYRVKISLYVMVGPDGQFMLMIPIEIELPPPPPTPEKDPNGKEKWKPDASA [r9_456_TrROS]  4.27 ± 0.21 kcal/mol
3. SAGMKPPKIEITIEVVEKDGELYVRVKIKLENGEEIEIVMSLDEVKELLKKLFPEITEIEVEEVRLPPKSAG [r5_25_TrROS_Hall]  4.09 ± 0.18 kcal/mol
4. SAGGSAGGSAGGKPKYKIVEIKYDKETKTVTLKIKLENGETVEITVPPGTSLEDILKALSAGGSAGGSAGGS [r10_984_TrROS_Hall]  3.9 ± 0.061 kcal/mol
5. SAGGSAFPTIAESPGVVKIEPLPDGTIKITFNTSEEAKEKIIEELKKLGNFNVEEDPEKPVLIVKKSAGGSA [r15_554_JUSTAS]  2.95 ± 0.059 kcal/mol
6. SAGGMNVTVTVELVPLPDEPVLFVTVETEDGSVSVITFDPATGTATVLKVSPTKTEITTVPAEDILLASAGG [r13_328_TrMRF]  2.79 ± 0.11 kcal/mol
7. SAKITIFFPFDAVKEILDLLKENGVEVNIERHPGNPWYSATITRPDPNGKELPIEIMMFPDHGYVQITLSAG [r14_169_TrROS]  2.62 ± 0.04 kcal/mol
8. SAGGSAGGSAGGSFKVTYFPGEKLLAVTFPDGSKKIFKIDDKGNPTIIAVIDPDKGKVLPSAGGSAGGSAGG [r7_659_TrMRF]  2.622 ± 0.02 kcal/mol
9. SAGGSAGGSAGSMTITITETKKLPNGKTVVTTTKVEVRVFPNGGAIERKTLEVVTEELLGSAGGSAGGSAGG [r17_129_JUSTAS]  1.79 ± 0.053 kcal/mol
10. SAGGSAGGSSMTFISTSTSPGNGYTYNIYSQPGKVVVTTTAPDGTVSVTTVEVSPDTSVTVTAASAGGSAGG [r6_380_JUSTAS]  1.36 ± 0.12 kcal/mol
11. SMVVLPVRYPDLSPEEARAAVEALAAEIEAAVGAEVRVEVEVERAPDGTPVRVLVTATVVIRTAADALLLSA [r9_21_JUSTAS]  1.16 ± 0.068 kcal/mol
12. SAGGMELPPEVKTIAEKLEAEGYDVLAVPVGDSYVIAVDGKVAATPEEFEKLKKIPGVKKLITIDLPSAGGS [r16_275_TrMRF]  0.583 ± 0.049 kcal/mol
13. SASESAVVEEEYTIDVTTVTPPGTPTTEPVRLTITRLPPNTVEVTLTAPDGKTVETRVIPLSVSLEELLSAG [r14_559_JUSTAS]  0.134 ± 0.3 kcal/mol
14. SEVVDTFSPPVTGSGEPRDFEIRLIKDENGNPVSVTMFDPVTGVEYPPDVSLEDLGVPPPVVEAFEAARRSS [r1_354_JUSTAS]  0.0636 ± 0.062 kcal/mol
15. SAGGSAGGSAMKYKVTVTTTPPDGTTTTTPTVVDFKSKEEIEEYVKKKAPKDTKVEVEIEPESAGGSAGGSA [r18_60_JUSTAS]  0.0584 ± 0.22 kcal/mol
16. SAGSMHLVEFTGTEEVVDEFLASLPPEVVVERERYPDRWLVRLPPDVPARTITVPTPDGRPVTFTLRLESAG [r5_123_JUSTAS]  -0.346 ± 0.31 kcal/mol

assay: folding stability dG unfold (combined trypsin and chymotrypsin); higher = more stable
Procedure, shortened: as §1

In order of rising “folding stability dG unfold” value:
1. SAGSMHLVEFTGTEEVVDEFLASLPPEVVVERERYPDRWLVRLPPDVPARTITVPTPDGRPVTFTLRLESAG [r5_123_JUSTAS]  -0.487 ± 0.21 kcal/mol
2. SAGGGSMVTQTEFTLPDGTKVSESTLPDGTVTTTITDPTNPTVTTSPVRTVSPGPLSPANPALVAALSAGGS [r16_482_JUSTAS]  -0.317 ± 0.1 kcal/mol
3. SAGGSAGGSAEPGPEELAKALAGELEKRFGKPVKEVKAYEIPGEKRYIVTAKLDDGEFTIIASAGGSAGGSA [r18_145_TrMRF]  -0.121 ± 0.38 kcal/mol
4. SEVVDTFSPPVTGSGEPRDFEIRLIKDENGNPVSVTMFDPVTGVEYPPDVSLEDLGVPPPVVEAFEAARRSS [r1_354_JUSTAS]  -0.0908 ± 0.069 kcal/mol
5. SAGGSAGGSAMKYKVTVTTTPPDGTTTTTPTVVDFKSKEEIEEYVKKKAPKDTKVEVEIEPESAGGSAGGSA [r18_60_JUSTAS]  0.0447 ± 0.19 kcal/mol
6. SAGGMPVTVTLDLSDLTPEEIERLLTEAVEAHPDPAAVTVRVKTDDPALEAAVRAAAEALPAVAVTLESAGG [r13_718_JUSTAS]  0.0912 ± 0.21 kcal/mol
7. SAGGSAGGSAMDAEEIADMIKEILRKQFPNVKITEITVERRPPGNYYVEARVPDGNQRTIPISAGGSAGGSA [r18_423_TrROS]  0.115 ± 0.061 kcal/mol
8. SASESAVVEEEYTIDVTTVTPPGTPTTEPVRLTITRLPPNTVEVTLTAPDGKTVETRVIPLSVSLEELLSAG [r14_559_JUSTAS]  0.493 ± 0.16 kcal/mol
9. SAGGMELPPEVKTIAEKLEAEGYDVLAVPVGDSYVIAVDGKVAATPEEFEKLKKIPGVKKLITIDLPSAGGS [r16_275_TrMRF]  0.541 ± 0.13 kcal/mol
10. QRVLPFKNPDGDYWVMIMNPNGDPLVEHRIPNDPEQMEKAIHKLMEQLPNFDPEDLRIAVMNPKNGESQEIS [r1_55_TrROS]  0.61 ± 0.13 kcal/mol
11. SAGGKKFYVEVKINLKDKTIYLIKEVKPGNLEKLIKEIEKKGIKEAGIDEIKIFPKDGYIEIKGGEKSAGGS [r8_219_TrMRF]  0.801 ± 0.1 kcal/mol
12. SAGGSAGLRVRLADGSELSVSPIPDKLRVVVTLPNGARIPIDVEDGELVEIVRDPAVPADFYIEEISAGGSA [r15_709_JUSTAS]  1.06 ± 0.1 kcal/mol
13. SMVVLPVRYPDLSPEEARAAVEALAAEIEAAVGAEVRVEVEVERAPDGTPVRVLVTATVVIRTAADALLLSA [r9_21_JUSTAS]  1.09 ± 0.12 kcal/mol
14. SAGGSAGGSSMTFISTSTSPGNGYTYNIYSQPGKVVVTTTAPDGTVSVTTVEVSPDTSVTVTAASAGGSAGG [r6_380_JUSTAS]  1.3 ± 0.085 kcal/mol
15. SAGGSAGGSAGKQPIEMWFMFPNGVAIVLRIKVDPPSPKAKIDAIEVVPVRDPDNGKWRFSAGGSAGGSAGG [r11_919_TrROS]  1.38 ± 0.14 kcal/mol
16. SAGGMPIILLEEKKLPNGEPVYRITLLERDPNDGSWRPIEEDELKTKEEAEERAKAIAEKRGVELLKSAGGS [r16_512_JUSTAS]  1.43 ± 0.053 kcal/mol
17. SAGGSAGMPDPPLEGLKEALREALAANPGEEVTLTVPRADGRTLTVRGTKDGGIEITLPDGTRIALSAGGSA [r15_73_JUSTAS]  1.58 ± 0.072 kcal/mol
18. SAGGSAGGSAGSMTITITETKKLPNGKTVVTTTKVEVRVFPNGGAIERKTLEVVTEELLGSAGGSAGGSAGG [r17_129_JUSTAS]  1.58 ± 0.098 kcal/mol
19. SAGGSAGGSAGGSFKVTYFPGEKLLAVTFPDGSKKIFKIDDKGNPTIIAVIDPDKGKVLPSAGGSAGGSAGG [r7_659_TrMRF]  2.35 ± 0.051 kcal/mol
20. SAGGSAGGSAGGGYIEIDSVHLHPDGTVTRTRAVLEVDENGNVRVLSAETETVPLDDILGSAGGSAGGSAGG [r7_521_TrMRF]  2.38 ± 0.12 kcal/mol
21. SAGGMNVTVTVELVPLPDEPVLFVTVETEDGSVSVITFDPATGTATVLKVSPTKTEITTVPAEDILLASAGG [r13_328_TrMRF]  2.43 ± 0.2 kcal/mol
22. SAKITIFFPFDAVKEILDLLKENGVEVNIERHPGNPWYSATITRPDPNGKELPIEIMMFPDHGYVQITLSAG [r14_169_TrROS]  2.57 ± 0.13 kcal/mol
23. SAGGSAFPTIAESPGVVKIEPLPDGTIKITFNTSEEAKEKIIEELKKLGNFNVEEDPEKPVLIVKKSAGGSA [r15_554_JUSTAS]  2.6 ± 0.098 kcal/mol
24. SAGGSAGVPPGGRVRVLVYNPLTGEVREVELPVGSLEEFLRGANLPAPLPDGRPAPVVVEILEVEPSAGGSA [r15_797_TrMRF]  2.64 ± 0.36 kcal/mol
25. SAGGSAGGSAGTLEALKNLKPGETVTLRVELRVERRYLDPNGKEHTEEVSTVTLELTLKPSAGGSAGGSAGG [r11_36_TrROS_Hall]  3.49 ± 0.11 kcal/mol
26. SKVKVEVVEVKYNKETKKFTVKLKVYNEDGELIEEIELEFPESEEEVLKKAEELAKELAEKYGLKIEIKPSA [r9_31_TrROS_Hall]  3.56 ± 0.12 kcal/mol
27. SAGGPYEFWFTITIDYPDLTPKQAVEEARKILRKLGFEITDIPVQVDPDPGWITVMARITIRPPEDASAGGS [r16_287_TrROS]  3.58 ± 0.16 kcal/mol
28. SAGMKPPKIEITIEVVEKDGELYVRVKIKLENGEEIEIVMSLDEVKELLKKLFPEITEIEVEEVRLPPKSAG [r5_25_TrROS_Hall]  3.74 ± 0.5 kcal/mol
29. SAGGSAGGSAGGKPKYKIVEIKYDKETKTVTLKIKLENGETVEITVPPGTSLEDILKALSAGGSAGGSAGGS [r10_984_TrROS_Hall]  3.83 ± 0.055 kcal/mol
30. SDIEIERDPNMIRIEHTYPFDNYRVKISLYVMVGPDGQFMLMIPIEIELPPPPPTPEKDPNGKEKWKPDASA [r9_456_TrROS]  3.85 ± 0.53 kcal/mol
31. SAGGSAGGSAGGSSIRIWIFFPGYFFRITIKPDPGNPNMIKIDITEIIPPDQMDDEDLISAGGSAGGSAGGS [r4_316_TrROS]  4.38 ± 0.3 kcal/mol

From the supplement of paper PMC12764529
